The values that follow come from patent US20030124121A1 (IMMUNEX, published 2003).

Assay [1] has as its target T1, human IL-4 receptor (human, UniProt P24394 26-232, limits assumed).
T1 construct: extracellular domain is 1 to 207 or -2 to 207 in that numbering; also called huIL-4R; IL-4Ralpha
As to the kind of experiment: hybridoma identification; assay not described.

Assay [2] deals with T1, human IL-4 receptor. Kind of assay: assay not described.
The target in assay [3] is T1, human IL-4 receptor. As to the kind of experiment: hybridoma screen for human gamma/kappa specific to IL-4R. The text has this:
The mouse was sacrificed, and spleen cells were extracted and fused with the murine myeloma cell line P3x63Ag8.653 (ATCC CRL 1580). A conventional PEG fusion protocol was followed. The fusion was screened for HuIgG and HuKappa, followed by a rescreen for human gamma and kappa specific to IL-4R. […] Techniques for altering (switching) the subclass/isotype of an antibody are known. […] Sequence information for a human IgG4 heavy chain is presented, for example, in Ellison et al. (DNA Vol. 1, no. 1, pp 11-18, 1981), which is hereby incorporated by reference herein.

B1: MAb 27A1 (antibody, IgG1, V domains shown)
VH: QVQLVESGGGVVQPGRSLRLSCSASGFTFSRYGMHWVRQAPGRGLEWVAIIWFEGNNQYYADSVKGRFTVSRDNSKNTLYLEMNSLRAEDTAVYYCARGKYYFDYWGQGTLVTVSS
VL: not shown
notes: Fully human antibody
On to B1, for which the binding result in assay [1] is listed as “binds”.

B2: MAb 5A1 (antibody, IgG1, V domains shown)
VH: EVQLVQSGGGLVHPGGSLRLTCAGSGFTFSNFVMHWVRQTPGQGLEWVSAIGTGGGTYYADSVKGRFTISRDNAKSSLYLQMNSLRAEDMAVYYCARDRPMVRGVIIDYFDYWGQGTLVTVSS
VL: EIVLTQSPATLSLSPGERATLSCRASQSVSSYLAWYQQKPGQAPRLLIYHASNRATGIPARFSGSGSGTDFTLTISSLEPEDFAVYYCQQRSNWPLTFGGGTKVEIK
notes: Fully human antibody
Regarding B2, the binding result in assay [1] is reported as “binds”.

B3: MAb 63 (antibody, IgM, V domains shown)
VH: EVQVLESGGNLVQPGGSLRLSCAASGFTFSSYAMSWVRQAPGKGLEWVSSITGSGGSTYYADSVKGRFTISRDNSKNTLYLQMNSLRAEDTAIFYCAKDNRGFFHYWGQGTLVTVSS
VL: DIQMTQSPSSVSASVGDRVTITCRASQGISTWLAWYQHKPGKAPKLLIYVASSLQSGVPSRFSGSGSGTDFTLTISSLQPEDFATYYCQQANSFPFTFGPGTKVDIK
notes: Fully human antibody
Consider B3, for which, in assay [1], the binding result was “binds”.

B4: MAb 1B7 (antibody, V domains shown)
VH: EVQVLESGGNLVQPGGSLRLSCAASGFTFSSYAMSWVRQAPGKGLEWVSSITGSGGSTYYADSVKGRFTISRDNSKNTLYLQMNSLRAEDTAIFYCAKDNRGFFHYWGQGTLVTVSS
VL: EIVLTQSPSSVSASVGDRVTITCRASQGISNRLAWYQQKPGKAPKLLIYIASILQRGVPSRFSGSGSGTDFTLTITRLQPEDFATYYCQQANSFPFTFGPGTKVDIK
notes: Derived from MAb 63; differs from it only in the light chain; heavy chain identical to MAb 63
B4: the binding result in assay [2] is given as “binds”.

B5: MAb 12B5 (antibody, human IgG1, V domains shown)
VH: EVQLVQSGGGLVHPGGSLRLSCAGSGFTFSRNAMFWVRQAPGKGLEWVSGIGTGGATNYADSVKGRFTISRDNAKNSLYLQMNSLRAEDMAVYYCARGRYYFDYWGQGTLVTVSS
VL: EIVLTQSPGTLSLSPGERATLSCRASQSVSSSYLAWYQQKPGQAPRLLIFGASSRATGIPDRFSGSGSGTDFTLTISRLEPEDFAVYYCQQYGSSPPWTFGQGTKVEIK
notes: also called clone 12B5
B5: the binding result in assay [3] was “binds”.
